This note sets out measurements from patent publication US20140127139A1 (GUERBET, published 2014).

No end group written: not given here.

For assay [1], the target named is T1, mouse MUC5AC glycoprotein purified from mouse stomach (mouse).
T1 construct: Native glycoprotein purified from tissue; Also used here as the target for the in vivo mouse stomach signal (MUC5AC in situ); also called murine (mouse) gastric MUC5AC
Description: ELISA; MUC5AC purified from mouse stomach immobilized, biotinylated peptide; apparent Kd. Here is the method:
(§1) The interaction between the peptide and MUC5AC is evaluated by means of an ELISA assay. The mucin MUC5AC (purified from pieces of human tumor on the basis of mucin extraction and purification protocols described in literature) is immobilized on a plate at the concentration of 12.5 μg/ml overnight at 4° C. The nonspecific sites are then saturated in a buffer enriched with milk, for 2 hours at 4° C. After several rinses, the peptide […] coupled to biotin is incubated at increasing concentrations (10⁻³M and 10⁻⁶M) for 2 hours at 37° C. The biotinylated peptides bound to MUC5AC are visualized using goat anti-biotin antibodies incubated for one hour at ambient temperature and then diluted in PBS at 1 μg/ml. After removal of the unbound antibodies, a second incubation for one hour at ambient temperature is carried out in the presence of peroxidase-labeled anti-goat antibodies at 0.2 μg/ml, diluted in PBS supplemented with 0.1% of Tween-20. The peroxidase coloration reaction is carried out in the presence of H₂O₂-enriched ABTS. The measurement of the OD at 405 nm makes it possible to calculate the K*d MUC5AC value.
(§2) The interaction between the peptide and MUC5AC is also evaluated by means of the previously described ELISA assay on the mucin MUC5AC purified beforehand from mouse and rat stomach.

In assay [2] the target is T2, human MUC5AC mucin purified from pieces of human tumor (human, UniProt P98088 28-5654, limits assumed, O-glycosylated mucin).
T2 construct: Native glycoprotein purified from tissue and immobilized on an ELISA plate at 12.5 ug/ml; Also used here as the target for labelling of human tissue sections (MUC5AC in situ); also called human colonic MUC5AC; purified MUC5AC
Put plainly: ELISA; purified human MUC5AC immobilized, biotinylated peptide at increasing concentrations, OD 405 nm; apparent Kd. The protocol: as §1

Assay [3] deals with T3, native MUC5AC secreted by HT29-5M21 human colonic adenocarcinoma cells (human, UniProt P98088 28-5654, O-glycosylated mucin).
T3 construct: whole, on cells; A secreted mucin on the cell layer, not a membrane protein; also called MUC5AC cells; MUC5AC directly after secretion on secretory human adenocarcinoma cells
Put plainly: cell ELISA on HT29 5M21 cells secreting MUC5AC, biotinylated peptide, OD 405 nm; apparent Kd. Here is the method:
The affinity of the peptide for MUC5AC is calculated from a functional cell assay which consists in measuring the binding of the peptide on a cell model secreting MUC5AC. After 21 days of culture for HT29-5M21 cells and 7 days for HCT116 cells, the cells are rinsed with PBS at 4° C., and then fixed with 1% glutaraldehyde diluted in PBS. The cells are then rinsed again 3 times with PBS at 4° C. and incubated for 2H at ambient temperature with a milk-enriched buffer and for 2H at 37° C. in a concentration range of between 10⁻³M and 10⁻⁶M of biotinylated peptides. The biotinylated peptides bound to the target are visualized using goat anti-biotin antibodies incubated for one hour at ambient temperature (diluted in PBS to 1 μg/ml). A second incubation for one hour at ambient temperature is carried out in the presence of peroxidase-labeled anti-goat antibodies at 0.2 μg/ml, diluted in PBS supplemented with 0.1% of Tween-20. The peroxidase coloration reaction is carried out in the presence of ABTS and the OD measurement is carried out at 405 nm. The cell assay has the advantage of showing affinity data, although its sensitivity can still be improved. The secretion of MUC5AC was indeed verified in the study. The results on human tissues (affinity curve for human MUC5AC also obtained) give very positive results. […]

Assay [4] addresses T4, rat MUC5AC glycoprotein purified from rat stomach (rat).
T4 construct: Native glycoprotein purified from tissue; also called murine (rat) gastric MUC5AC
Put plainly: ELISA; MUC5AC purified from rat stomach immobilized, biotinylated peptide; apparent Kd. The protocol:
as §1, §2

Assay [5] addresses T5, MUC2 glycoprotein (human, UniProt Q02817 21-5289, limits assumed, O-glycosylated mucin).
T5 construct: Present in situ in fixed, paraffin-embedded tissue sections; also called major mucin of the intestine
Description: histological labelling of human colonic adenoma sections with biotinylated peptide, compared with anti-MUC2 antibody labelling. Here is the method: Sections of healthy gastric and colonic mucosae and of human colorectal adenoma (5 μm thick) were fixed for 24 h with 4% paraformaldehyde and embedded in paraffin. For the labeling, the sections were first of all deparaffinized in toluene and rehydrateted in 95% alcohol. After rinsing in water, the slides are brought to boiling for 10 minutes in a citrate buffer (50 mM, pH 4). Once the temperature of the buffer has returned to 25-30° C., the slides are then rinsed with PBS and then successively incubated for 15 minutes in a 0.15% hydrogen peroxide (H₂O₂) solution and a kit for blocking the endogenous biotin for 1 h. The sections are then blocked using a milk-enriched buffer for 1 h at ambient temperature, and are then incubated at 4° C. for 18 h with the peptides at various concentrations (20 μM, 10 μM, 1 μM, 0.2 μM, 0.04 μM) or the antibodies (MUC5AC: PM8 at a 1/100 dilution and MUC2: Lum2-3 at a 1/100 dilution) diluted in PBS. The biotinylated peptides bound to the target are visualized using goat anti-biotin antibodies incubated for one hour at ambient temperature and then diluted in PBS at 1 μg/ml. A second incubation for one hour at ambient temperature is carried out in the presence of peroxidase-labeled anti-goat antibodies at 0.2 μg/ml diluted in PBS supplemented with 0.1% of Tween-20. […]

B1: peptide CPSIYPLLC (SEQ ID No. 2) coupled to biotin (peptide)
peptide: CPSIYPLLC
modifications: also: biotin coupled, site not given here, cyclic, closure type not given here
notes: The chemistry of the biotin coupling is not described; also called Cyclic C60
Take B1: the Kd was 549 µM in assay [1], 85 µM in assay [2], 48 µM in assay [3] and 659 µM in assay [4]. In assay [5], the binding result is listed as “no binding”.
